Article PMC10090139

Biological target: endogenous KIT of C57 mouse mast cells (UniProt P05532)
Assay: immunoprecipitation with anti-Flag antibody and immunoblot, densitometric analysis by ImageJ
Conditions: n = 4, p = 0.0013 (two-tailed unpaired Student's t-test), parent: est. 1.0, read off a plot

UniProt P05532, sequence (P05532 25-979): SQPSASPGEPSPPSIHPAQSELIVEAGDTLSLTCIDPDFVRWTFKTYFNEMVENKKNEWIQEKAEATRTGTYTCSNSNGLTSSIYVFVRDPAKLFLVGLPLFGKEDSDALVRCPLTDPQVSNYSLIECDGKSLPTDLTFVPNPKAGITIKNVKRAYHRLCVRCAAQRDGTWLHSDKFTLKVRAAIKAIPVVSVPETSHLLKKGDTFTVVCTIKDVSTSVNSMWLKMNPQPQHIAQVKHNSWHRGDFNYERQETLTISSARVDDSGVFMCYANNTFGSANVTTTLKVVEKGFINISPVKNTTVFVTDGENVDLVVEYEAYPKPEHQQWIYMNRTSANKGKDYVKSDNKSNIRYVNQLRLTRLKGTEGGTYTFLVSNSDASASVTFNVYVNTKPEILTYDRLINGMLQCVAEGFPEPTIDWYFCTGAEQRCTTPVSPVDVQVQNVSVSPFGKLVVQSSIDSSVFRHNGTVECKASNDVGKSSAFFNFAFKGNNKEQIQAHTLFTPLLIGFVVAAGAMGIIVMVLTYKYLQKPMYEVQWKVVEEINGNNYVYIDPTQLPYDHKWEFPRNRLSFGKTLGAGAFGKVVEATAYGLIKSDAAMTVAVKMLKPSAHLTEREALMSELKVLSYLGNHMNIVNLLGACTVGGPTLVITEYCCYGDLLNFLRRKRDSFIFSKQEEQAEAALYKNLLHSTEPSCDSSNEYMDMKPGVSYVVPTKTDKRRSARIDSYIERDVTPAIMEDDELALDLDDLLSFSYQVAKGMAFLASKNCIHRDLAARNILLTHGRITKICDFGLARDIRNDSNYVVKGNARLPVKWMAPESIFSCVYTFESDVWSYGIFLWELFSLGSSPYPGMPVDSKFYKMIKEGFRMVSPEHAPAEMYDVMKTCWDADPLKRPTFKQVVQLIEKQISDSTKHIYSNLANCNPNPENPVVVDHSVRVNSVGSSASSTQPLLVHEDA

Substance: wild-type MCEMP1 with carboxyl-terminal Flag, stably expressed in C57 mouse mast cells (from UniProt Q8IX19) YF
- ratio to parent: 0.45
